In experiment [1] the target is human PD-L1 on cell surface (human) (UniProt Q9NZQ7). Briefly: flow cytometry on CHO cells expressing human PD-L1, fitted curve, negative control. On the technique in general: Flow cytometry measures light scatter and fluorescence of single cells or particles in a stream.
In experiment [2] the target is monkey PD-L1 on cell surface (monkey). Briefly: flow cytometry on CHO cells expressing monkey PD-L1, fitted curve, negative control.
For experiment [3], the target named is biotin-labeled PD-L1-Fc (human) (UniProt Q9NZQ7). Kind of experiment: ELISA: biotin-PD-L1-Fc binding to coated human PD-1 with titrated antibody; negative control. A general note: ELISA stands for enzyme-linked immunosorbent assay.
Chain of biotin-labeled PD-L1-Fc (human) (Q9NZQ7 19-238 limits assumed): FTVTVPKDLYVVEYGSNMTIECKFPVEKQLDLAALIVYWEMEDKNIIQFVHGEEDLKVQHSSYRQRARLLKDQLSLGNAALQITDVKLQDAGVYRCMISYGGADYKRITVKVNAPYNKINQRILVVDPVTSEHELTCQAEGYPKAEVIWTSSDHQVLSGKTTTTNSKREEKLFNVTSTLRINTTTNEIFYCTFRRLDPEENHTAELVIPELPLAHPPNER
For experiment [4] the target is unchanged. Briefly: ELISA: biotin-PD-L1-Fc binding to coated human PD-1 with titrated antibody, OD 450 nm, fitted curve; negative control.
Experiment [5] has the same target. Kind of experiment: flow cytometry: biotin-PD-L1-Fc binding to CHO cells expressing human PD-1 with titrated antibody, fitted curve; negative control.

Chain of human PD-L1 on cell surface (human) (Q9NZQ7 19-290): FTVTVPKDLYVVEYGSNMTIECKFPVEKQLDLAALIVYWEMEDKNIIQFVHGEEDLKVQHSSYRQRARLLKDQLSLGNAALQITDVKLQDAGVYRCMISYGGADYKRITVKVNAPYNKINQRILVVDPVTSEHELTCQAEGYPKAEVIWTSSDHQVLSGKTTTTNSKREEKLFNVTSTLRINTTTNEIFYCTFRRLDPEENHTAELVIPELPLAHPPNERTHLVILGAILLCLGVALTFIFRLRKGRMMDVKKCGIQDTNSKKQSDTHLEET

Usually EC50 stands for the concentration at which the effect is half-maximal. Turning to negative control antibody human IgG, in experiment [1], the Bottom amounted to 166, the EC50 was 0.015 nM, the LogEC50 was -1.82 and the Span came out at 24.7. Further, the Top in experiment [1] was 191. In addition, in experiment [2], the Bottom was 216, the EC50 was 19.3 nM, the LogEC50 was determined as 1.29 and the Span worked out at 32. Moreover, the Top in experiment [2] worked out at 248. This substance came in with an EC50 in experiment [3] of 2.88 µg/mL. Further, in experiment [4], the Bottom was 1.75, the LogEC50 is 3.46, the Span was found to be 0.186 and the Top turned out to be 1.94. Further, in experiment [5], the Bottom was 5880, the LogEC50 was -17.5, the Span was 1.15e+06 and the Top is 1.16e+06.

Source of the values: patent US20220073618A1.
